Experimental data taken from paper PMC3696401.

Molecular target: IRBIT (UniProt Q80SW1)
Assay: reciprocal co-IP from co-transfected cells
Conditions: reference: wild-type IP3R1; sites S1589,S1755

Sequence of UniProt Q80SW1 (Q80SW1 whole entry, looked up): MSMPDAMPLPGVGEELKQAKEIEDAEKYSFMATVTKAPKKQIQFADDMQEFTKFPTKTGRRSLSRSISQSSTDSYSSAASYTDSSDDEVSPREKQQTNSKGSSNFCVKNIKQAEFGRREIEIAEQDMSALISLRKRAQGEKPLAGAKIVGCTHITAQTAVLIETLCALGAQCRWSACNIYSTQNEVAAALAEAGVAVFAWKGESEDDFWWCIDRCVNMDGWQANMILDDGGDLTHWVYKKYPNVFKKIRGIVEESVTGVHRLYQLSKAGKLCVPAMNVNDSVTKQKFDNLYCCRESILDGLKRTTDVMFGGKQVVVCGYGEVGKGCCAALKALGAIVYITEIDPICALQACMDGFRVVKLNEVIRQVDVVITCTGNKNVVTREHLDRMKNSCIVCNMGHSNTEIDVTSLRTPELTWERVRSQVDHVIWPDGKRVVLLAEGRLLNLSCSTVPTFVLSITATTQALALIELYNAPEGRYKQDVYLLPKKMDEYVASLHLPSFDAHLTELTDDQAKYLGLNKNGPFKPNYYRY

In the case of “IP3R1 (from UniProt P29994-3) S1589A/S1755A (AA)”, the “binding against the reference” value is reported as “stronger”.
